According to publication PMC4155688, “Mapping the Putative G Protein-coupled Receptor (GPCR) Docking Site on GPCR Kinase 2” (The Journal of Biological Chemistry, 2014):

B1: RlucII-GRK2 (wild type) [human] / α2AAR-GFP^2 [not stated] (parent)
chain 1: MADLEAVLADVSYLMAMEKSKATPAARASKKILLPEPSIRSVMQKYLEDRGEVTFEKIFSQKLGYLLFRDFCLNHLEEARPLVEFYEEIKKYEKLETEEERVARSREIFDSYIMKELLACSHPFSKSATEHVQGHLGKKQVPPDLFQPYIEEICQNLRGDVFQKFIESDKFTRFCQWKNVELNIHLTMNDFSVHRIIGRGGFGEVYGCRKADTGKMYAMKCLDKKRIKMKQGETLALNERIMLSLVSTGDCPFIVCMSYAFHTPDKLSFILDLMNGGDLHYHLSQHGVFSEADMRFYAAEIILGLEHMHNRFVVYRDLKPANILLDEHGHVRISDLGLACDFSKKKPHASVGTHGYMAPEVLQKGVAYDSSADWFSLGCMLFKLLRGHSPFRQHKTKDKHEIDRMTLTMAVELPDSFSPELRSLLEGLLQRDVNRRLGCLGRGAQEVKESPFFRSLDWQMVFLQKYPPPLIPPRGEVNAADAFDIGSFDEEDTKGIKLLDSDQELYRNFPLTISERWQQEVAETVFDTINAETDRLEARKKAKNKQLGHEEDYALGKDCIMHGYMSKMGNPFLTQWQRRYFYLFPNRLEWRGEGEAPQSLLTMEEIQSVEETQIKERKCLLLKIRGGKQFILQCDSDPELVQWKKELRDAYREAQQLVQRVPKMKNKPRSPVVELSKVPLVQRGSANGL
chain 2: MFRQEQPLAEGSFAPMGSLQPDAGNASWNGTEAPGGGARATPYSLQVTLTLVCLAGLLMLLTVFGNVLVIIAVFTSRALKAPQNLFLVSLASADILVATLVIPFSLANEVMGYWYFGKAWCEIYLALDVLFCTSSIVHLCAISLDRYWSITQAIEYNLKRTPRRIKAIIITVWVISAVISFPPLISIEKKGGGGGPQPAEPRCEINDQKWYVISSCIGSFFAPCLIMILVYVRIYQIAKRRTRVPPSRRGPDAVAAPPGGTERRPNGLGPERSAGPGGAEAEPLPTQLNGAPGEPAPAGPRDTDALDLEESSSSDHAERPPGPRRPERGPRGKGKARASQVKPGDSLPRRGPGATGIGTPAAGPGEERVGAAKASRWRGRQNREKRFTFVLAVVIGVFVVCWFPFFFTYTLTAVGCSVPRTLFKFFFWFGYCNSSLNPVIYTIFNHDFRRAFKKILCRGDRKRIV

Variants of: B1
Test: BRET
Settings: with α2AAR-GFP^2; HEK293T cells; 100 μm NOR for 6 min; read off a plot

Variant	response
chain 1 G475I	0.016
chain 1 E18A	0.05
chain 1 D10R	0.041
chain 1 D10A	0.026
chain 1 K220R	0.032
chain 1 I485A	0.018
chain 1 A482I	0.059
chain 1 P473E	0.033
chain 1 M15A	0.027
chain 1 D481A	0.049
chain 1 D3A	0.026

Variants of: B1
Test: BRET dose-response
Settings: with α2AAR-GFP^2; HEK293T cells; point at highest NOR concentration, log [NOR] = -3; read off a plot

Variant	response
chain 1 K220R	0.031
